Data reported in patent US20120264231A1, “ASSAY FOR ORAI CALCIUM CHANNEL REGULATORS” (IMMUNE DISEASE INSTITUTE, INC., priority 2009, published 2012).

How the values were obtained:
GST-ORAI1^CT = target: T1, GST-ORAI1^CT (Homo sapiens, UniProt Q96D31); experiment: GST pull down assay with GST-ORAI1^CT (residues 259-301); type: binding; details: SDS-PAGE, Coomassie staining
T1 construct: cDNA encoding ORAI1 residues 259-301 was amplified using PCR; made in house; host or cells: E. coli BL21 (DE3), pGEX-4T-1
Source text: Recruitment of ORAI1 to puncta by full-length STIM 1 depends on a direct or indirect interaction of STIM 1 with the C-terminal cytoplasmic tail of ORAI134,51. Therefore the direct interaction of recombinant STIM 1 proteins was next examined with a bacterially expressed fusion protein, GST-ORAI^CT, containing the cytoplasmic tail of ORAI1, residues 259-301. STIM 1^CT and the other STIM 1 fragments, except for STIM 1 (233-463), bound to GST-ORAI1^CT immobilized on resin (FIG. 2B). Binding was dependent on recognition of ORAI^CT, since there was no binding to GST alone. Because all input and bound proteins on the gel was visualized with Coomassie Brilliant Blue staining and detected no other proteins, the current experiment is unambiguous proof of a direct protein-protein interaction between STIM 1^CT and ORAI1^CT.
The cDNAs encoding mouse STIM 1^CT fragments (residues 233-685, 233-666, 233-600, 233-531, 233-498, or 233-463) were amplified via PCR and cloned into the pProEX HTb vector (Invitrogen) between the BamHI and XhoI sites for expression as His-tagged proteins. For production of the C-terminal cytoplasmic tail of ORAI 1 as a GST fusion protein, coupled to GST through the flexible linker—GSGSRGSPEF—(SEQ ID NO: 1), cDNA encoding ORAI1 residues 259-301 was amplified using PCR and cloned into the pGEX-4T-1 vector (GE Healthcare) between the BamHI and NotI sites. […]

[1] = Cameleon intravesicular Ca^2+ assay, control vesicles; type: biochemical, S cerevisiae; details: ionomycin 20 μM
Procedure: In complementary measurements, vesicular Ca^2+ was monitored directly by coexpressing ORAI1 with the Ca^2+ sensor D3 cpV or D4 cpV53 fused to the α-mating factor secretion signal to target the sensor to the vesicles. Vesicles that had incorporated ORAI1 were isolated from sec6-4 yeast incubated at the restrictive temperature and were diluted into assay buffer.
S cerevisiae strain NY17 featuring the temperature-sensitive sec6-4 mutation was used for protein expression and purification of secretory vesicles as described (Nakamoto, R. K., et al., J Biol Chem 266, 7940-7949 (1991); Coury, L. A., et al., Methods Enzymol 306, 169-186 (1999)). Cells were grown to midlog phase at 25° C. in uracil-deficient synthetic complete medium containing glucose, which was subsequently exchanged for galactose to induce transgene expression over a period of 8 hours. The temperature was then switched to 37° C. for 3 hours to force intracellular accumulation of secretory vesicles. […] Myc-tagged ORAI1 was detected in Western blots using the murine anti-Myc monoclonal antibody 9E10.
Changes in intravesicular [Ca^2+] were monitored with the modified Ca^2+ sensors cameleon D3 cpV and D4 cpV53. […] Emission spectra were recorded from 450-560 nm with excitation set at 410 nm, with a 5-8 nm slitwidth for both excitation and emission, and corrected by subtracting the spectrum obtained with buffer alone. […]

T1 sequence (Q96D31 259-301): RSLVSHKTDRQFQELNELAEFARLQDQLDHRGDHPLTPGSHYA

Compound: STIM1^CT: cytoplasmic region of STIM1, mouse residues 233-685, His-tagged recombinant protein expressed in E coli
- binding to GST-ORAI1^CT immobilized on resin (GST-ORAI1^CT): bound

Compound: C[C@H](CCC(=O)O)C[C@H](C)C[C@H](C)C(=O)/C=C(\O)[C@H](C)C[C@H](C)C/C=C/[C@@H](C)[C@@H](O)[C@@H](C)[C@@H](O)C[C@@H]1CC[C@@](C)([C@H]2CC[C@@](C)([C@@H](C)O)O2)O1 [ionomycin, reference compound]
- Ca^2+ release from control vesicles (cameleon) [1]: effective in releasing Ca^2+
